Laboratory results reported in US6627200.

Target: CD137 ligand expressed by the monocytes (human) (UniProt P41273)
Experiment: cell-based or functional assay

Sequence of UniProt P41273 (P41273 whole entry): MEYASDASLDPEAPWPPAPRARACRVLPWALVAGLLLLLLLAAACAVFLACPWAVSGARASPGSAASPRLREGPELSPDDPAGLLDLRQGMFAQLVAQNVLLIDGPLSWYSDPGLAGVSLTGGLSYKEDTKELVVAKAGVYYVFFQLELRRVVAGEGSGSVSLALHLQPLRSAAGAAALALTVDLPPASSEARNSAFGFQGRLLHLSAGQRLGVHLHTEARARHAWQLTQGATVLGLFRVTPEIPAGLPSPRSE

“Recombinant CD137-Fc protein, consisting of the extracellular domain of human CD137 and the constant domain of human immunoglobulin G1 (Fc) (from UniProt Q07011 18-186) (Fc fusion)” was tested. Which 3H-thymidine incorporation of peripheral monocytes on immobilized CD137-Fc, against control cells did it give?
The 3H-thymidine incorporation of peripheral monocytes on immobilized CD137-Fc, against control cells was > 30 fold.
